What was measured:
thrombin [1] = target: thrombin (Homo sapiens, UniProt P00734); test: thrombin inhibition assay with the chromogenic substrate S 2238 (specific activity); type: biochemical
Excerpt: The specific activity of the PEG1 -hirudin conjugate purified from the coupling mixture was 8,000 U/mg of protein (determined by the thrombin inhibition assay with the chromogenic substrate S 2238 (Kabi), (FEBS-Lett. (1983), 164, 307), protein determined by BCA assay with serum albumin as standard (Pierce)), and the molecular weight of the conjugate was 15,000 Da (Superose®-12 chromatography, Pharmacia).

[2] = Pharmacokinetics of PEG2-hirudin conjugates in dogs (plasma anti-factor IIa activity); type: in vivo; conditions: beagle dogs, 4,000 U/kg intravenous or subcutaneous, compared with underivatized hirudin, FIGS. 3 and 4
Description: 2 groups of dogs (beagle dogs, 4 animals in each group) each received intravenous or subcutaneous administration of 4,000 U/kg PEG2 -hirudin (0.2 ml vol). 2 ml samples of blood in 0.1M Na citrate were taken 0.25, 0.5, 1, 2, 3, 4, 6, 8, 24, 32, 48, 56, 72 and 80 h after the injection. Subsequently platelet-poor plasma was prepared by centrifugation at 4,000 g for 10 minutes, and the plasma PEG-hirudin concentration was determined by the thrombin inhibition in the chromogenic substrate assay with S 2238 (Kabi). For comparison, the same dogs were treated in another experiment with hirudin. The time course of the plasma hirudin concentration was subsequently determined as described above.
FIGS. 3 and 4 depict the time course of the anti-factor IIa activities after intravenous and subcutaneous administration of PEG2 -hirudin and underivatized hirudin.

thrombin [3] = target: thrombin
[4] = in vivo; cited from earlier work
[5] = purified conjugate, protein determined by BCA assay with serum albumin as standard
[6] = underivatized protein used as starting material

Question: With “PEG1-hirudin: desulfatohirudin carrying one methoxy-polyethylene glycol(8000) residue, Example 9” as the molecule, how does the specific activity (thrombin [1]; [5]) read?
Answer: The specific activity was 8,000 U/mg of protein.

Question: What does the source list for “PEG2-hirudin: desulfatohirudin carrying two methoxypolyethylene glycol (8,000 Da) residues, Example 10”?
Answer: bioavailability [2]: better; duration of the biological action (anti-factor IIa activity time course) [2]: distinctly prolonged; specific activity (thrombin [1]; [5]): 6,200 U/mg of protein

Question: Which specific activity (thrombin [3]) does the source give for desulfatohirudin (from UniProt P01050) here?
Answer: The specific activity was 8000 ATU/mg.

Question: Which specific activity (thrombin [1]; [6]) does the source give for “desulfatohirudin: hirudin prepared by genetic engineering, sulfate residue on Tyr 63 absent; sequences 1A + 2A + 3A [reference compound]” here?
Answer: Its specific activity is 8,000 ATU/mg.

Question: For “hirudin: naturally occurring anticoagulant protein of 65 amino acids from the leech Hirudo medicinalis, thrombin inhibitor”, which “half-life in the blood” value [4] is on record?
Answer: The value was “about 50 min”.

B1: HL 14B: hirudin mutein, Asp33→Lys33, Lys36→Arg36, Lys47→Arg47 (protein)
chain: VVYTDCTESGQNLCLCEGSNVCGQGNKCILGSKGERNQCVTGEGTPRPQSHNDGDFEEIPEEYLQ
Question: For B1, which specific activity (thrombin [1]; [6]) is on record?
Answer: Its specific activity is 8,900 ATU/mg.

B2: PEG2-HL 14B: hirudin mutein HL 14B carrying two methoxy-polyethylene glycol (8,000 Da) residues, Example 11 (conjugate)
chain: VVYTDCTESGQNLCLCEGSNVCGQGNKCILGSKGERNQCVTGEGTPRPQSHNDGDFEEIPEEYLQ
modifications: ends and bridges not checked; also: two methoxy-PEG (8,000 Da) on lysine side-chain amino groups, positions not given here
Question: With B2 as the molecule, how does the specific activity (thrombin [1]; [5]) read?
Answer: The specific activity was 8,300 U/mg of protein.

Reference: patent publication US5663141A, “Hirudin/polyalkylene glycol conjugates and hirudin muteins” (BASF Aktiengesellschaft, priority 1989, dated 1997)
